Biological target: the molecule itself
Experiment: SEC + crystal structure

B1: E,Z-farnesyl diphosphate synthase (Rv1086) (enzyme)
chain: MEIIPPRLKEPLYRLYELRLRQGLAASKSDLPRHIAVLCDGNRRWARSAGYDDVSYGYRMGAAKIAEMLRWCHEAGIELATVYLLSTENLQRDPDELAALIEIITDVVEEICAPANHWSVRTVGDLGLIGEEPARRLRGAVESTPEVASFHVNVAVGYGGRREIVDAVRALLSKELANGATAEELVDAVTVEGISENLYTSGQPDPDLVIRTSGEQRLSGFLLWQSAYSEMWFTEAHWPAFRHVDFLRALRDYSARHRSYGR
stoichiometry N: 2
